Molecular target: T1, LOR-1 (lysyl oxidase related protein-1) (human, UniProt Q9Y4K0 26-774, limits assumed)
T1 construct: also called hLOR1
T1 sequence: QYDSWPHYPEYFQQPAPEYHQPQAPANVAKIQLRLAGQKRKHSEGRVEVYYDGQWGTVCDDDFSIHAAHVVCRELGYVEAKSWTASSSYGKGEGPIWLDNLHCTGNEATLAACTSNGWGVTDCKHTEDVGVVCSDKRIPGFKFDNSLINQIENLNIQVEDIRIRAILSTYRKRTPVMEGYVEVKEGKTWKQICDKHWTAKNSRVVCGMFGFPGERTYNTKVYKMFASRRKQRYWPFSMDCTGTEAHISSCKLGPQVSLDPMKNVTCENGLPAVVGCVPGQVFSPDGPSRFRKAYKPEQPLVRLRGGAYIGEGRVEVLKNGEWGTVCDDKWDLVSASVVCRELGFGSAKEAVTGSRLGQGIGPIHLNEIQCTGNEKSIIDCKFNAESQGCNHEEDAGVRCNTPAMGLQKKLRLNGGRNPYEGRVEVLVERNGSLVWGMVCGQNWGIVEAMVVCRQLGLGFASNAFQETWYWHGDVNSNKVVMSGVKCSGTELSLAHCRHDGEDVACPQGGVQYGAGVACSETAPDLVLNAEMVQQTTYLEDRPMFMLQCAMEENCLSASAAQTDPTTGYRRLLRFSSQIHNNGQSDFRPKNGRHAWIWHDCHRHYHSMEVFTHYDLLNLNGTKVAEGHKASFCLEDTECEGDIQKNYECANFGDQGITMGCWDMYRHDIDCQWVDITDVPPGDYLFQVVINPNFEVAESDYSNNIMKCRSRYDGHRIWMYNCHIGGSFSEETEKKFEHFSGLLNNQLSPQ
Assay: PF4 affinity column, 35S-methionine labeled cells, SDS-PAGE

B1: Human recombinant platelet factor-4 (PF4, GenBank Accession number M20901) (ligand, UniProt P02776 32-101, looked up)
chain: EAEEDGDLQCLCVKTTSQVRPRHITSLEVIKAGPHCPTAQLIATLKNGRKICLDLQAPLYKKIIKKLLES
notes: Supplied by Repligen Corp
B1: binds.
